In patent US20250304628A1:
pKd: −log10 of the molar value.

Tests used:
IgG [1] = test: SPR, Biacore 4000; IgG immobilised on CM5 chip, mutant as analyte
IgG [2] = test: dynamic binding capacity at 10% breakthrough; ligand coupled to agarose medium, IgG 1 mg/ml loaded, before alkali treatment
IgG [3] = test: dynamic binding capacity at 10% breakthrough; ligand coupled to agarose medium; after 24 h of 1 M NaOH treatment (2 h cycles)
IgG [4] = test: dynamic binding capacity at 10% breakthrough; ligand coupled to agarose medium; after 24 h of 1 M NaOH treatment, relative to initial capacity

| Substance | pKd (IgG [1]) | Initial IgG capability (dynamic binding capacity at 10% breakthrough) (IgG [2]) | Remaining IgG capacity after 24 hours (dynamic binding capacity at 10% breakthrough) (IgG [3]) | Remaining IgG capacity after 24 hours (% of initial) (IgG [4]) |
| --- | --- | --- | --- | --- |
| Z(E15F)4 (designed binder) | 8.40 | 155 mg/mL | 35.5 mg/mL | 22.8% |
| Z(E15T)4 (designed binder) | 8.33 | 176 mg/mL | 45.5 mg/mL | 25.9% |
| Z(E15V)4 (designed binder) | 8.58 | 133 mg/mL | 33.2 mg/mL | 24.9% |
| Z(E15Y)4 (designed binder) | 8.54 | 174 mg/mL | 48.6 mg/mL | 28% |
| Z(N3L, N6E, Q9F, E15L, N23I)4 (designed binder) | – | 148 mg/mL | 65 mg/mL | 44% |
| Z(N3L, N6E, Q9I, E15I, N23I)4 (designed binder) | 8.59 | 161 mg/mL | 57.2 mg/mL | 35.4% |
| Z(N3L, N6E, Q9I, E15I, N23I)6 (designed binder) | – | 149 mg/mL | 87.8 mg/mL | 58.8% |
| Z(N3L, N6L, Q9F, E15I, N23V)4 (designed binder) | – | 151 mg/mL | 68.4 mg/mL | 45.2% |
| Z(N3L, N6L, Q9F, E15I, N23V)6 (designed binder) | – | 175 mg/mL | 112 mg/mL | 63.9% |
| Z(N3L, Q9I, E15L, N23V)4 (designed binder) | 8.36 | 166 mg/mL | 42.1 mg/mL | 25.4% |
| Z(N3V, N6E, Q9I, E15L)4 (designed binder) | 8.57 | 177 mg/mL | 110 mg/mL | 62.2% |
| Z(N3V, N6L, Q9F, E15V, N23Y)4 (designed binder) | 8.56 | 169 mg/mL | 67.9 mg/mL | 40.1% |
| Z(N3V, N6L, Q9I, E15V, N23Y)6 (designed binder) | – | 190 mg/mL | 103 mg/mL | 54.2% |
| Z(N6L, Q9F, E15I, N23V)4 (designed binder) | 8.40 | 186 mg/mL | 68.2 mg/mL | 36.7% |
| Z(Q9I)4 (designed binder) | – | 143 mg/mL | 39.6 mg/mL | 27.6% |

The remaining lines, values ahead:

| pKd (IgG [1]) | Initial IgG capability (dynamic binding capacity at 10% breakthrough) (IgG [2]) | Remaining IgG capacity after 24 hours (dynamic binding capacity at 10% breakthrough) (IgG [3]) | Remaining IgG capacity after 24 hours (% of initial) (IgG [4]) | Substance |
| --- | --- | --- | --- | --- |
| 8.95 | 145 mg/mL | 21.6 mg/mL | 14.9% | Z(E15D)4 (designed binder) |
| 8.59 | 187 mg/mL | 33 mg/mL | 17.7% | Z(E15I)4 (designed binder) |
| 8.90 | 157 mg/mL | 63 mg/mL | 40.1% | Z(E15L)4 (designed binder) |
| 8.75 | 165 mg/mL | 72 mg/mL | 43.6% | Z(E15S)4 (designed binder) |
| 8.81 | 165 mg/mL | 38.1 mg/mL | 23.2% | Z(E15W)4 (designed binder) |
| 8.68 | 179 mg/mL | 70.2 mg/mL | 39.2% | Z(N3L, N6L, Q9I, E15L)4 (designed binder) |
| 8.63 | 159 mg/mL | 45.3 mg/mL | 28.5% | Z(N3L, N6L, Q9I, E15L, N23V)4 (designed binder) |
| 8.76 | 182 mg/mL | 37.2 mg/mL | 20.4% | Z(Q9F)4 (designed binder) |
| 8.61 | 136 mg/mL | 42.6 mg/mL | 31.5% | Z(Q9M)4 (designed binder) |
